The record followed here is article PMC2928010.

For orientation: Kd means the free concentration of one partner at which half of the binding sites on the other are occupied at equilibrium, for simple one-to-one binding. Read a high Kd as lower affinity.

Where two headings read alike, the source gives them in different places. A value given as a limit tells only on which side of the number the result lay.

Assay [1] has as its target acrylodan-labeled FtsY C356 (E. coli) (UniProt P10121). The assay can be described thus: other fluorescence titration.
Assay [2] has the same target. The assay can be described thus: other fluorescence titration. This is another data set of the same source.
In assay [3] the target is RNC–SRP: coumarin-labeled SRP C235 loaded with ribosome–nascent chain complex (E. coli) (UniProt P0AGD7). Briefly: FRET or BRET. (BRET reads energy transfer from a luciferase to a nearby fluorophore.)
Assay [4] has the same target. Briefly: FRET or BRET. This is another data set of the same source.

As to “signal recognition particle (SRP): Ffh with 4.5S RNA (from UniProt P0AGD7 1-453) (complex)”, the Kd in assay [1] is 145 nM; in assay [2], less than 4 nM.
With “BODIPY-fluorescein–labeled FtsY C487 (from UniProt P10121 1-497) (receptor)”, the Kd in assay [3] came to 68 nM; in assay [4] it was 104 nM.
